Measurements published in the supplement of paper PMC5998384.

Experiments:
HeLa Kyoto [1] = assay: solubility in G1/S (NP-40 vs SDS abundance) (log2 ratio); higher = more soluble; details: cell cycle stage: G1/S
HeLa Kyoto [2] = assay: solubility change mitosis vs G1/S (difference of NP-40 vs SDS log2 ratios) (log2 ratio difference); higher = more soluble in mitosis
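Throughout, for solubility change mitosis vs G1/S (difference of NP-40 vs SDS log2 ratios): synchronized HeLa Kyoto cells (double thymidine block for G1/S, nocodazole release for mitosis), protein amounts in NP-40 versus SDS lysates quantified by mass spectrometry, three biological replicates.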
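Throughout, for solubility in G1/S (NP-40 vs SDS abundance): HeLa Kyoto cells arrested at G1/S by double thymidine block, proteins quantified by TMT10plex mass spectrometry in mild NP-40 versus SDS extracts, three biological replicates.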

| Sequence | solubility in G1/S (log2) (HeLa Kyoto [1]) | solubility change mitosis (log2) (HeLa Kyoto [2]) |
| --- | --- | --- |
| MRFMTLLFLTALAGALVCAYDPEAASAPGSGNPCHEASAAQKENAGEDPGLARQAPKPRKQRSSLLEKGLDGAKKAVGGLGKLGKDAVEDLESVGKGAVHDVKDVLDSVL [DCD] | -1.49 | 1.24 |
| MRLFLWNAVLTLFVTSLIGALIPEPEVKIEVLQKPFICHRKTKGGDLMLVHYEGYLEKDGSLFHSTHKHNNGQPIWFTLGILEALKGWDQGLKGMCVGEKRKLIIPPALGYGKEGKGKIPPESTLIFNIDLLEIRNGPRSHESFQEMDLNDDWKLSKDEVKAYLKKEFEKHGAVVNESHHDALVEDIFDKEDEDKDGFISAREFTYKHDEL [FKBP14] | 0.295 | -0.053 |
| MRLTPRALCSAAQAAWRENFPLCGRDVARWFPGHMAKGLKKMQSSLKLVDCIIEVHDARIPLSGRNPLFQETLGLKPHLLVLNKMDLADLTEQQKIMQHLEGEGLKNVIFTNCVKDENVKQIIPMVTELIGRSHRYHRKENLEYCIMVIGVPNVGKSSLINSLRRQHLRKGKATRVGGEPGITRAVMSKIQVSERPLMFLLDTPGVLAPRIESVETGLKLALCGTVLDHLVGEETMADYLLYTLNKHQRFGYVQHYGLGSACDNVERVLKSVAVKLGKTQKVKVLTGTGNVNIIQPNYPAAARDFLQTFRRGLLGSVMLDLDVLRGHPPAETLP [MTG1] | 0.123 | -0.0796 |
| MRSRSNSGVRLDGYARLVQQTILCHQNPVTGLLPASYDQKDAWVRDNVYSILAVWGLGLAYRKNADRDEDKAKAYELEQSVVKLMRGLLHCMIRQVDKVESFKYSQSTKDSLHAKYNTKTCATVVGDDQWGHLQLDATSVYLLFLAQMTASGLHIIHSLDEVNFIQNLVFYIEAAYKTADFGIWERGDKTNQGISELNASSVGMAKAALEALDELDLFGVKGGPQSVIHVLADEVQHCQSILNSLLPRASTSKEVDASLLSVVSFPAFAVEDSQLVELTKQEIITKLQGRYGCCRFLRDGYKTPKEDPNRLYYEPAELKLFENIECEWPLFWTYFILDGVFSGNAEQVQEYKEALEAVLIKGKNGVPLLPELYSVPPDRVDEEYQNPHTVDRVPMGKLPHMWGQSLYILGSLMAEGFLAPGEIDPLNRRFSTVPKPDVVVQVSILAETEEIKTILKDKGIYVETIAEVYPIRVQPARILSHIYSSLGCNNRMKLSGRPYRHMGVLGTSKLYDIRKTIFTFTPQFIDQQQFYLALDNKMIVEMLRTDLSYLCSRWRMTGQPTITFPISHSMLDEDGTSLNSSILAALRKMQDGYFGGARVQTGKLSEFLTTSCCTHLSFMDPGPEGKLYSEDYDDNYDYLESGNWMNDYDSTSHARCGDEVARYLDHLLAHTAPHPKLAPTSQKGGLDRFQAAVQTTCDLMSLVTKAKELHVQNVHMYLPTKLFQASRPSFNLLDSPHPRQENQVPSVRVEIHLPRDQSGEVDFKALVLQLKETSSLQEQADILYMLYTMKGPDWNTELYNERSATVRELLTELYGKVGEIRHWGLIRYISGILRKKVEALDEACTDLLSHQKHLTVGLPPEPREKTISAPLPYEALTQLIDEASEGDMSISILTQEIMVYLAMYMRTQPGLFAEMFRLRIGLIIQVMATELAHSLRCSAEEATEGLMNLSPSAMKNLLHHILSGKEFGVERSVRPTDSNVSPAISIHEIGAVGATKTERTGIMQLKSEIKQVEFRRLSISAESQSPGTSMTPSSGSFPSAYDQQSSKDSRQGQWQRRRRLDGALNRVPVGFYQKVWKVLQKCHGLSVEGFVLPSSTTREMTPGEIKFSVHVESVLNRVPQPEYRQLLVEAILVLTMLADIEIHSIGSIIAVEKIVHIANDLFLQEQKTLGADDTMLAKDPASGICTLLYDSAPSGRFGTMTYLSKAAATYVQEFLPHSICAMQ [PHKA1] | 0.037 | -0.332 |
| MRTEAEAAGPPLEPGDFVQLPVPVIQQLYHWDCGLACSRMVLRYLGQLDDSEFERALQKLQLTRSIWTIDLAYLMHHFGVRHRFCTQTLGVDKGYKNQSFYRKHFDTEETRVNQLFAQAKACKVLVEKCTVSVKDIQAHLAQGHVAIVLVNSGVLHCDLCSSPVKYCCFTPSGHHCFCRTPDYQGHFIVLRGYNRATGCIFYNNPAYADPGMCSTSISNFEEARTSYGTDEDILFVYLDS [GUCD1] | -0.455 | -0.00182 |
| MSCTIEKALADAKALVERLRDHDDAAESLIEQTTALNKRVEAMKQYQEEIQELNEVARHRPRSTLVMGIQQENRQIRELQQENKELRTSLEEHQSALELIMSKYREQMFRLLMASKKDDPGIIMKLKEQHSKIDMVHRNKSEGFFLDASRHILEAPQHGLERRHLEANQNELQAHVDQITEMAAVMRKAIEIDEQQGCKEQERIFQLEQENKGLREILQITRESFLNLRKDDASESTSLSALVTNSDLSLRKS [FGFR1OP2] | 0.209 | 0.0581 |
| MSDRKAVIKNADMSEDMQQDAVDCATQAMEKYNIEKDIAAYIKKEFDKKYNPTWHCIVGRNFGSYVTHETKHFIYFYLGQVAILLFKSG [DYNLL2] | -0.415 | 0.249 |
| MSEARGEPGSGPEAGARFFCTAGRGLEPFVMREVRARLAATQVEYISGKVFFTTCSDLNMLKKLKSAERLFLLIKKQFPLIISSVSKGKIFNEMQRLINEDPGSWLNAISIWKNLLELDAKKEKLSQRDDNQLKRKVGENEIIAKKLKIEQMQKIEENRDCQLEKQIKEETLEQRDFTTKSEKFQEEEFQNDIEKAIDTHNQNDLTFRVSCRCSGTIGKAFTAQEVGKVIGIAIMKHFGWKADLRNPQLEIFIHLNDIYSVVGIPVFRVSLASRAYIKTAGLRSTIAWAMASLADIKAGAFVLDPMCGLGTILLEAAKEWPDVYYVGADVSDSQLLGTWDNLKAAGLEDKIELLKISVIELPLPSESVDIIISDIPFGKKFKLGKDIKSILQEMERVLHVGGTIVLLLSEDHHRRLTDCKESNIPFNSKDSHTDEPGIKKCLNPEEKTGAFKTASTSFEASNHKFLDRMSPFGSLVPVECYKVSLGKTDAFICKYKKSHSSGL [THUMPD2] | 0.0337 | -0.134 |
| MSFLFSSRSSKTFKPKKNIPEGSHQYELLKHAEATLGSGNLRQAVMLPEGEDLNEWIAVNTVDFFNQINMLYGTITEFCTEASCPVMSAGPRYEYHWADGTNIKKPIKCSAPKYIDYLMTWVQDQLDDETLFPSKIGVPFPKNFMSVAKTILKRLFRVYAHIYHQHFDSVMQLQEEAHLNTSFKHFIFFVQEFNLIDRRELAPLQELIEKLGSKDR [MOB1A] | 0.448 | -0.11 |
| MSGGGTETPVGCEAAPGGGSKKRDSLGTAGSAHLIIKDLGEIHSRLLDHRPVIQGETRYFVKEFEEKRGLREMRVLENLKNMIHETNEHTLPKCRDTMRDSLSQVLQRLQAANDSVCRLQQREQERKKIHSDHLVASEKQHMLQWDNFMKEQPNKRAEVDEEHRKAMERLKEQYAEMEKDLAKFSTF [BLOC1S5] | 0.438 | -0.0624 |
| MSGRSVRAETRSRAKDDIKKVMAAIEKVRKWEKKWVTVGDTSLRIFKWVPVTDSKEKEKSKSNSSAAREPNGFPSDASANSSLLLEFQDENSNQSSVSDVYQLKVDSSTNSSPSPQQSESLSPAHTSDFRTDDSQPPTLGQEILEEPSLPSSEVADEPPTLTKEEPVPLETQVVEEEEDSGAPPLKRFCVDQPTVPQTASES [BCL7B] | 0.295 | 0.0126 |
